# T1: SARS-CoV-2 ORF7b accessory protein, full length, with C-terminal SA linker and Strep-tag II (SARS-CoV-2, UniProt P0DTD8 1-43)
# T1 construct: ORF7b of SARS-CoV-2, 43 residues, full length; NMR samples are isotope labelled on chosen amino acids (Leu, Phe and others); Forms heterogeneous multimers; no defined number of copies; also called ORF7b-ST; ORF7b^L:F; not shown: Strep-tag II, C-terminal, kept
# T1 chain: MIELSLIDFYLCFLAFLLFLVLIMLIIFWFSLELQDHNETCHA
# Target: T1, SARS-CoV-2 ORF7b accessory protein, …
# Assay: solid-state NMR (2D hChH reverse-MIRROR, intermolecular polarization transfer)
# Conditions: both partners purified
binder,measurement,value
"EAGLQIPAILGILGGILALLILILLLLLFLRRR (domain or fragment, human, UniProt P12830-2 641-673, looked up, also called E-cadTM; E-cadTM^L; source: wheat-germ cell-free synthesis, purified) [E-cadherin transmembrane domain (E641-R673), purified, Leu-labelled, for solid-state NMR]",binding result,binds

# Source: article PMC11573672, “Analysis of the structure and interactions of the SARS-CoV-2 ORF7b accessory protein” (Proceedings of the National Academy of Sciences of the …, 2024)
